Measured values from patent publication US20250197451A1 (CAPITAL MEDICAL UNIVERSITY SCHOOL OF STOMATOLOGY, published 2025).

Target: T1, biotin-labelled EZH2 protein (UniProt Q15910 1-746, limits assumed, biotin label (EZ-link NHS-PEO4-Biotinylation kit))
T1 construct: Probe in solution (1 ug/ml) on the KDM2B peptide microarray; also called NHS-PEO4-Biotinylation-labelled EZH2 protein; recombinant protein
Assay: KDM2B peptide array probed with biotin-EZH2 1 ug/ml, SA-HRP/ECL;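 further: Background-corrected optical density of each spot on the membrane, given as percent of the brightest spot (100%), color developed for 5 minutes; 100% is the highest background-corrected spot optical density on the membrane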
Experimental: After blocking, the polypeptide microarray was incubated with biotin-labeled target protein for hybridization, visualized with the chemical chromogenic substrate and imaged using a Chempchemi digital imager. The image of colored polypeptide microarray was analyzed for the optical density of the colored points. Particularly, the optical density of each colored point was calculated using the optical density of the respective surrounding background as a reference for background correction. The highest optical density value of the colored point on membrane was set to 100%, and the optical density value of the remaining colored points was converted into percentages relative to the highest value. The points with an optical density percentage of more than 30% on the polypeptide membrane and also with an optical density percentage of less than 30% on the negative membrane were defined as positive colored points.
For the hybridization experiment, a solution of NHS-PEO4-Biotinylation-labelled EZH2 protein (1 μg/ml) was used for the hybridization of the polypeptide microarray. Streptavidin-HRP was used to amplify the reaction signal according to the experimental procedure and conditions described above, and the time of color development was 5 minutes.

T1 sequence (Q15910 whole entry): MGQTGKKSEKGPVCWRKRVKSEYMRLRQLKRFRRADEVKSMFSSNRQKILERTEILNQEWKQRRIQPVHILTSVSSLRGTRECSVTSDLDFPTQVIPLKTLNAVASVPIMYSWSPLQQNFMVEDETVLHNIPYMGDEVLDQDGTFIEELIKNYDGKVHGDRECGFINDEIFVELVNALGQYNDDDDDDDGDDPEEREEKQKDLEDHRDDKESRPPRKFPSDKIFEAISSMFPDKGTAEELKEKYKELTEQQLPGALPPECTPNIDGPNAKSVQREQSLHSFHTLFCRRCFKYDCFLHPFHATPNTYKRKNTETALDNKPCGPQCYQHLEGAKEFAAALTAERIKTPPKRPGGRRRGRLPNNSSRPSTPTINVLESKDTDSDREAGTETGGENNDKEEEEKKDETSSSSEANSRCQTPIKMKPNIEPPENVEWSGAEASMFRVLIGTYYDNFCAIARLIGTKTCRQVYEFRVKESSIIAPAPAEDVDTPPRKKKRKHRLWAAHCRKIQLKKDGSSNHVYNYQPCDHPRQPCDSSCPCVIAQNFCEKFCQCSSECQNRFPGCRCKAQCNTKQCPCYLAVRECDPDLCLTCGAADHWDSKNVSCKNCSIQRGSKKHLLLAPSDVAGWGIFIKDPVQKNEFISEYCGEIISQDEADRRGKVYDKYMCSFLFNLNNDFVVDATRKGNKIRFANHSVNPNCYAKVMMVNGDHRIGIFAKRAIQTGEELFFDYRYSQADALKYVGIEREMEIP

First: QPIKSEPESEGEEPK [peptide 195]
Second: PPPSVSPPKCIQMER [peptide 206]
The “Intensity (%)” value of the first is higher: 2.29% for the first, 1.29% for the second.

Compared with SKLHLSYCNHVTDQS [peptide 249], RTLDVQWVEGLKDAQ [peptide 236] is higher in “Intensity (%)” value: 0% for the first, 2.1% for the second.

Going from WIAVSALCSSSCPLL [peptide 233] to IKMPDPDFTVRDVKL [peptide 24], the “Intensity (%)” value falls from 34.8% to 0%.

Going from RYCKQVTKEGCEQFI [peptide 261] to LRDLVLSGCSWIAVS [peptide 231], the “Intensity (%)” value rises from 5.21% to 100%.

Going from INLLTAVGTTTRDSL [peptide 252] to LSRELSKELNHEIQR [peptide 190], the “Intensity (%)” value rises from 0.22% to 0.26%.

VTDQSINLLTAVGTT [peptide 251] and LRRFKQEPEDELPEA [peptide 178] are the same in “Intensity (%)” value: 0% for the first, 0% for the second.

SPPKCIQMERHVIRP [peptide 207] and SPPTDNRPGQMDNRS [peptide 240] are the same in “Intensity (%)” value: 0% for the first, 0% for the second.

Going from ALCSSSCPLLRTLDV [peptide 234] to LRSPPRVISRPPPSV [peptide 204], the “Intensity (%)” value falls from 3.59% to 1.91%.

Compared with SVQFGQVEEKLLQKL [peptide 265], SCPLLRTLDVQWVEG [peptide 235] is lower in “Intensity (%)” value: 2.09% for the first, 2.02% for the second.

Compared with AEMSVSVQFGQVEEK [peptide 264], DFNYEYVQREALRVP [peptide 19] is lower in “Intensity (%)” value: 2.91% for the first, 0% for the second.

LMLSGIIRRQPVSLD [peptide 224] and LANKPLRRFKQEPED [peptide 177] are the same in “Intensity (%)” value: 0% for the first, 0% for the second.

Going from HREVWMAVFSYLSHQ [peptide 214] to QEPEDELPEAPPKTR [peptide 179], the “Intensity (%)” value rises from 0% to 0.39%.

First: DLNHCKSITPLMLSG [peptide 222]
Second: YVQREALRVPLIFRE [peptide 20]
The “Intensity (%)” value of the first is lower: 0% for the first, 1.28% for the second.

Compared with HEIQRTENSLANENQ [peptide 192], ALRVPLIFREKDGLG [peptide 21] is higher in “Intensity (%)” value: 0.19% for the first, 21.1% for the second.

Going from LKDAQMRDLLSPPTD [peptide 238] to YLSHQDLCVCMRVCR [peptide 216], the “Intensity (%)” value falls from 0.62% to 0%.

Compared with RRKRRLPNKELSREL [peptide 188], RDVKLLVGSRRLVDV [peptide 26] is lower in “Intensity (%)” value: 0.8% for the first, 0.36% for the second.

First: KDGLGIKMPDPDFTV [peptide 23]
Second: SDCNKVTDQCLSFFK [peptide 256]
The “Intensity (%)” value of the first is lower: 0% for the first, 5.43% for the second.

Compared with CCDKRLWTRIDLNHC [peptide 220], NRLPGLRDLVLSGCS [peptide 230] is higher in “Intensity (%)” value: 4.32% for the first, 7.03% for the second.

First: QWVEGLKDAQMRDLL [peptide 237]
Second: AGLDITDASLRLIIR [peptide 245]
The “Intensity (%)” value of the first is higher: 1.18% for the first, 0.31% for the second.

Compared with GEEPKRPPGICERPH [peptide 197], CHIDLRYCKQVTKEG [peptide 260] is higher in “Intensity (%)” value: 0% for the first, 22.3% for the second.

Going from LWTRIDLNHCKSITP [peptide 221] to MRVCRTWNRWCCDKR [peptide 218], the “Intensity (%)” value falls from 4.09% to 2.93%.

First: MAVFSYLSHQDLCVC [peptide 215]
Second: RCGNICHIDLRYCKQ [peptide 259]
The “Intensity (%)” value of the first is higher: 2.82% for the first, 1.36% for the second.

First: AAHVMHREVWMAVFS [peptide 213]
Second: SKELNHEIQRTENSL [peptide 191]
The “Intensity (%)” value of the first is higher: 11.8% for the first, 0% for the second.

First: LSGCSWIAVSALCSS [peptide 232]
Second: PPDSLPLDDGAAHVM [peptide 211]
The “Intensity (%)” value of the first is higher: 95.4% for the first, 0% for the second.

Compared with TEGAEGPEEKKKVKM [peptide 185], MDNRSKLRNIVELRL [peptide 242] is higher in “Intensity (%)” value: 0% for the first, 0.64% for the second.

Going from PVSLDLSWTNISKKQ [peptide 226] to QLGPSLRSPPRVISR [peptide 203], the “Intensity (%)” value falls from 0.51% to 0%.

PLDDGAAHVMHREVW [peptide 212] and ANENQQPIKSEPESE [peptide 194] are the same in “Intensity (%)” value: 0% for the first, 0% for the second.

Compared with SYCNHVTDQSINLLT [peptide 250], PDFTVRDVKLLVGSR [peptide 25] is higher in “Intensity (%)” value: 0% for the first, 0.02% for the second.

Going from KLRNIVELRLAGLDI [peptide 243] to GPEEKKKVKMRRKRR [peptide 186], the “Intensity (%)” value falls from 0.92% to 0%.

Compared with ELPEAPPKTRESDHS [peptide 180], CERPHRFSKGLNGTP [peptide 199] is higher in “Intensity (%)” value: 0% for the first, 0.18% for the second.

First: RLIIRHMPLLSKLHL [peptide 247]
Second: VELRLAGLDITDASL [peptide 244]
The “Intensity (%)” value of the first is higher: 3.66% for the first, 0.9% for the second.

Compared with RFSKGLNGTPRELRH [peptide 200], DLCVCMRVCRTWNRW [peptide 217] is lower in “Intensity (%)” value: 0.91% for the first, 0.19% for the second.

Going from MRDLLSPPTDNRPGQ [peptide 239] to LPNKELSRELSKELN [peptide 189], the “Intensity (%)” value falls from 1% to 0%.

Compared with LIFREKDGLGIKMPD [peptide 22], HMPLLSKLHLSYCNH [peptide 248] is lower in “Intensity (%)” value: 2.54% for the first, 1.15% for the second.

First: EPESEGEEPKRPPGI [peptide 196]
Second: KKVKMRRKRRLPNKE [peptide 187]
The “Intensity (%)” value of the first is higher: 1.04% for the first, 0.95% for the second.

TENSLANENQQPIKS [peptide 193] was tested, and the “Intensity (%)” value was 0%.
